Target: taxol-stabilized microtubules prepared from bovine brain tubulin, P81947
Sequence (P81947 whole entry, chain 1 of 2): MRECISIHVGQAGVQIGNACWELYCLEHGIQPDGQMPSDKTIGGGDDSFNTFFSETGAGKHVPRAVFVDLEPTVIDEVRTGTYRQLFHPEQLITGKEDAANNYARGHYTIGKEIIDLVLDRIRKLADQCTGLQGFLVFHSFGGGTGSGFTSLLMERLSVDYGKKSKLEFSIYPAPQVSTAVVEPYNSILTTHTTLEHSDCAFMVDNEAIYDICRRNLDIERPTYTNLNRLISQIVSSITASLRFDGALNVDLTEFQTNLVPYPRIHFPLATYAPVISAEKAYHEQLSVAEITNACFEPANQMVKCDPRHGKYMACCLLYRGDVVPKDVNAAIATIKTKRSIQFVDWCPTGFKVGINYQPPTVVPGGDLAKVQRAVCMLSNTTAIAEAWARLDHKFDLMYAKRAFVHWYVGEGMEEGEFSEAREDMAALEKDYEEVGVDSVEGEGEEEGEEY
Sequence (chain, as listed by the source, chain 2 of 2): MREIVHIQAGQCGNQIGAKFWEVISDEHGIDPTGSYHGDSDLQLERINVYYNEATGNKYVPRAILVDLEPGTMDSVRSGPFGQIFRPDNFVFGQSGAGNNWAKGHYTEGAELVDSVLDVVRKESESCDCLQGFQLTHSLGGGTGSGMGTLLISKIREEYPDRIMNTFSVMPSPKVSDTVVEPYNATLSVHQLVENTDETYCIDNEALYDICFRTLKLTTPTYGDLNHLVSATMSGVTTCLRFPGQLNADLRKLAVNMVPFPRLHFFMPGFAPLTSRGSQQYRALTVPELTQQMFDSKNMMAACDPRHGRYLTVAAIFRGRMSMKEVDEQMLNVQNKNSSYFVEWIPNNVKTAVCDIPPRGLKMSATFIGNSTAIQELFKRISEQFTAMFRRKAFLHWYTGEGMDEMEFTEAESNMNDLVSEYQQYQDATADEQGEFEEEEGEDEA

| Protein | ATPase activity (ATP turnover), stimulation by microtubules | maximal microtubule-stimulated ATPase rate | microtubule concentration at peak ATPase stimulation | microtubule severing, fluorescence microscopy assay | microtubule-stimulated ATPase activity |
| --- | --- | --- | --- | --- | --- |
| baculovirus co-expressed S. purpuratus katanin p60/p80 heterodimer, each subunit with N-terminal His(6) tag (protein) chain 1: MSVDEICENTKMGREYALLGNYETSLVYYQGVLQQIQKLLTSVHEPQRKHQWQTIRQELSQEYEHVKNITKTLNGFKSEPAAPEPAPNHGRAAPFSHHQHAAKPAAAEPARDPDVWPPPTPVDHRPSPPYQRAARKDPPRRSEPSKPANRAPGNDRGGRGPSDRRGDARSGGGGRGGARGSDKDKNRGGKSDKDKKAPSGEEGDEKKFDPAGYDKDLVENLERDIVQRNPNVHWADIAGLTEAKRLLEEAVVLPLWMPDYFKGIRRPWKGVLMVGPPGTGKTMLAKAVATECGTTFFNVSSASLTSKYHGESEKLVRLLFEMARFYAPSTIFIDEIDSICSKRGTGSEHEASRRVKSELLIQMDGVSGPSAGEESSKMVMVLAATNFPWDIDEALRRRLEKRIYIPLPEIDGREQLLRINLKEVPLADDIDLKSIAEKMDGYSGADITNVCRDASMMAMRRRIQGLRPEEIRHIPKEELNQPSTPADFLLALQKVSKSVGKEDLVKYMAWMEEFGSV chain 2: MATKRAWKLQELVAHSSNVNCLALGPMSGRVMVTGGEDKKVNLWAVGKQNCIISLSGHTSPVDSVKFNSSEELVVAGSQSGTMKIYDLEPAKIVRTLTGHRNSIRCMDFHPFGEFVASGSTDTNVKLWDVRRKGCIYTYKGHSDQVNMIKFSPDGKWLVTASEDTTIKLWDLTMGKLFQEFKNHTGGVTGIEFHPNEFLLASGSSDRTVQFWDLETFQLVSSTSPGASAVRSISFHPDGSYLFCSSQDMLHAFGWEPIRCFDTFSVFWGKVADTVIASTQLIGASFNATNVSVYVADLSRMSTTGIAQEPQSQPSKTPSGGAEEVPSKPLTASGRKNFVRERPHTTSSKQRQPDVKSEPERQSPTQDEGVKDDDATDIKDPDSYAKIFSPKTRVDHSPERNAQPFPAPLDVPGAQEPEPFKHPPKPAAAAAVAPVSRAPAPSASDWQPAQANPAPNRVPAATKPVPAQEVAPSRKPDPISTIIPSDRNKPANLDMDAFLPPAHAQQAPRVNAPASRKQSDSERIEGLRKGHDSMCQVLSSRHRNLDVVRAIWTAGDAKTSVESVVNMKDQAILVDILNIMLLKKSLWNLDMCVVVLPRLKELLSSKYENYVHTSCACLKLILKNFTSLFNQNIKCPPSGIDITREERYNKCSKCYSYLIATRGYVEEKQHVSGKLGSSFRELHLLLDQLE | this activity was stimulated ~10-fold by microtubules | maximal microtubule-stimulated rate of 3 ATP/katanin/sec | peak at ~2 uM tubulin | Both p60 and p60/p80 severed microtubules in this assay | – |
| baculovirus-expressed S. purpuratus katanin p60 subunit with N-terminal His(6) tag (protein) MSVDEICENTKMGREYALLGNYETSLVYYQGVLQQIQKLLTSVHEPQRKHQWQTIRQELSQEYEHVKNITKTLNGFKSEPAAPEPAPNHGRAAPFSHHQHAAKPAAAEPARDPDVWPPPTPVDHRPSPPYQRAARKDPPRRSEPSKPANRAPGNDRGGRGPSDRRGDARSGGGGRGGARGSDKDKNRGGKSDKDKKAPSGEEGDEKKFDPAGYDKDLVENLERDIVQRNPNVHWADIAGLTEAKRLLEEAVVLPLWMPDYFKGIRRPWKGVLMVGPPGTGKTMLAKAVATECGTTFFNVSSASLTSKYHGESEKLVRLLFEMARFYAPSTIFIDEIDSICSKRGTGSEHEASRRVKSELLIQMDGVSGPSAGEESSKMVMVLAATNFPWDIDEALRRRLEKRIYIPLPEIDGREQLLRINLKEVPLADDIDLKSIAEKMDGYSGADITNVCRDASMMAMRRRIQGLRPEEIRHIPKEELNQPSTPADFLLALQKVSKSVGKEDLVKYMAWMEEFGSV | – | – | peak at ~2 uM tubulin | Both p60 and p60/p80 severed microtubules in this assay | p60 alone displayed a microtubule-stimulated ATPase activity |
